Reference: patent US20250026813A1 (published 2025)
Substitutions are numbered along the chain they refer to.

B1: YANG-1305 (antibody, V domains shown)
VH: QVQLVESGGGVVQPGKSLRLSCAASGFAFSSFGMHWVRQAPGTGLEWLAIISFEGTKKYYADSMKGRITISRDNSKNTLYLQMNSLRAEDTAVYYCAADYGDYDDYYYGVHVWGQGTTVTVSS
VL: DIQMTQSPSSLSASVGDRVTITCRASQGIANYLAWYQQKPGKVPKLLIYATSTLQSGVPSRFSGSGSGTDFTLTISSLQPEDVAIYYCQKYDSAPFTFGPGTKVDFK
B2: YANG-2101 (antibody, V domains shown)
VH: EVQLVESGGGLVQPGGSLRLSCAASGFTFSLYDMHWVRQATGKGLEWVAGVGIAGDTIYPDSVKGRFTISRENAKNSFFLQMNRLRAGDTAVYYCVRGGTGTTFFDYWGQGVLVTVSS
VL: DIQMTQSPSSLSASVGDRVTVTCRASQDITNYLAWFQQKPGKAPKSLIYSASSLQGGTPSKFSGSGSGTEFTLTISSLQPEDFATYYCQQYNSFPLTFGGGTKVEIK
B3: YANG-1301 (antibody, V domains shown)
VH: QVQLVESGGGVVQPGRSLRLSCAASGFTFSSYGMHWVRQAPGKGLEWVAVIWYDGSNKFYADSVKGRFTISRDNSKNTLYLQMNSLKAEDTAVYYCARDTWIGESDTSWLDPWGQGTLVTVSS
VL: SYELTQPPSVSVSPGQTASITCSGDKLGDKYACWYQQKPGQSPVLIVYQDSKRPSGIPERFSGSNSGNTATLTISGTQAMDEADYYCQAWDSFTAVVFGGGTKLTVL
B4: YANG-1401 (antibody, V domains shown)
VH: QVHLQESGPGLVKPSGTLSLTCAVSGGSFSQINWWSWVRQSPGKGLEWIGEIYHSGSTNYNPSLKSRVTMSVDKSKNQFSLALNSVTAADTAVYYCARGYYGDNWFDSWGQGTLVTVSS
VL: DIQMTQSPSSLSASIGDRVTITCRASQGISNWLVWYQQKPEKAPKSLIYAASSLQSGVPSRFSGSGSGTDFTLTISSLHPEDFATYYCQQYSDYPLTFGGGTKVEIK
B5: YANG-1302 (antibody, V domains shown)
VH: QVQLVESGGGAVQPGRSLRLSCRASGFTFSSFGMNWVRQVPGKGLVWVAGIWYDGRNKYYADSVKGRFTISRENSKNMLYLQMNSLRAEDTAVYYCARDQDSGFDGNWFGPWGQGTMVTVSS
VL: SYELTQPPSMSVSPGQTASITCSGDNLGDKYVCWYQQRPGQSPVMVIFQDSTRPSGIPERFSGSNSGNTATLTISGTQAMDEADYYCQAWDSNTAVFGGGTKLTVL
B6: YANG-1402 (antibody, V domains shown)
VH: EVQLVESGGGLIQPGGSLRLSCAASGVTVSSNYMNWVRQAPGKGLEWVSVIYSGGSTYYADSVKGRFTISRDNSKNTLYLQMNSLRVEDTAVYYCARDIGDYGMDVWGQGTTVTVSS
VL: DIQLTQAPSFLSASVGDRLTITCWASQGISSYLAWYQQKPGKAPKILIYAASTLQSGVPSRFSGSGSGTEFTLTISSLQPEDFATYYCQQLNSYPLIFGGGTKVEIK
B7: YANG-1303 (antibody, V domains shown)
VH: QVQLVQSGTEMKEPGASVKVSCKASGYTFTNYGITWVRQAPGQGLEWMGWLNTNNGDTNYAQKLQGRVTMTTDTSTSTAYMELRSLRSDDTAVYYCARDSVTTYDYWGQGTLVTVSS
VL: SYELTQPPSVSVSPGQTARITCSGDALPKKYAYWFQQKSAQAPVLVIYEDSKRPSGIPERFSGSSSGTMATLTINGAQVEDEAAYYCYSLDSSGNHWVFGGGTKLTVL
B8: YANG-1304 (antibody, V domains shown)
VH: QVQLQQWGAGLVKTSETLSLTCAVYGGSFNDHYWSWIRQPPGKGLEWIGEINHSGSTNYNPSLKSRVTMSLDTSKNQFSLKLRSLTAADTAMYYCAIEGIWGQGAMVTVSS
VL: B7 VL with K29I, A32V, Y33H, F35Y, A40G, F61I, I74M, N75S, A84D, L90T
B9: YANG-1403 (antibody, V domains shown)
VH: QVQLVESGGGVVQPGRSLRLSCAASGFTFSNYGMHWVRQAPGKGLEWVAVIWYDGSNKYYADSVKGRFTISRDNSKNTLYLQMNSLRAEDTAVYFCVRETVTDGMDVWGQGTTVTVSL
VL: NIQMTQSPSAMSASVGDRVTITCRARQDISNYLAWFQQKPGKVPKHLIYAASSLLSGVPSRFSGSGSGTEFTLTISSLQPEDFATYYCLHHNGYPWTFGQGTKVEIK

Molecular target: SARS-CoV-2 spike protein bearing furin mutation and truncation in retention sequence (on pseudoviral envelope) (SARS-CoV-2, UniProt P0DTC2 14-1273)
Test: cell-based or functional assay

| Binder | PV neutralisation IC50 | PV neutralization % (Ab 1 ug/mL) |
| --- | --- | --- |
| B1 | 0.42 nM | 60.5% |
| B2 |  | 100% |
| B3 | 0.52 nM | 60.4% |
| B4 | 0.53 nM | 91.6% |
| B5 | 0.23 nM | 60.3% |
| B6 |  | 94.5% |
| B7 |  | 46.3% |
| B8 |  | 41.5% |
| B9 |  | 99.3% |
